The test has as its target T1, Human CD53-CHO (full-length human CD53 over-expressed on CHO-K1 cells) (human, UniProt P19397 1-219).
T1 construct: Tetraspanin cell-surface antigen
T1 sequence: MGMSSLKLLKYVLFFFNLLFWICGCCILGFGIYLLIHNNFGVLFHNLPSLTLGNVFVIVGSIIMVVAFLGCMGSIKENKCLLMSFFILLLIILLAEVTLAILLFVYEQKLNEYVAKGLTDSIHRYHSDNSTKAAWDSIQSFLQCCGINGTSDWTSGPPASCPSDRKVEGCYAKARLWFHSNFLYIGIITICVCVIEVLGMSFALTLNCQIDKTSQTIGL
The test can be described thus: flow cytometry on CD53-CHO cells, anti-mouse IgG AF647 gMFI, 4-parameter fit. As to the method:
Binding of anti-human CD53 antibodies was determined by flow cytometry for their ability to bind human CD53-CHO cells compared to parental CHO-K1 cells. All assay steps were performed in FACS buffer (phosphate buffered saline pH 7.4 supplemented with 2% fetal bovine serum). Twenty thousand cells were seeded in 384-well plates and washed twice with ice cold buffer. Cells were incubated with purified antibodies titrated 3-fold from 200 nM to 0.09 nM at 4° C. for 1 hour with gentle agitation, then washed twice with FACS buffer and incubated with anti-mouse IgG Alexa Fluor® 647 and incubated at 4° C. for 40 minutes. Cells were washed twice and resuspended in FACS buffer. Analysis was preformed on the IntelliCyt® iQue Screener and gMFI values for Alexa Fluor® 647 were generated. EC50 values were determined in GraphPad Prism8. Concentration was transformed from nM to Log 10 nM and curves were fit with a nonlinear regression of log(agonist) vs. response−Variable slope (four parameters) or Y=Bottom+(Top−Bottom)/(1+10\hat{ }((LogEC50−X)*HillSlope)). EC50 values for all anti-human CD53 antibodies can be found in Table 6, and representative binding curves can be found in FIG. 7. Binding to CD53-CHO is represented by closed symbols and binding to parental CHO-K1 cells is represented by open symbols.
A general note: A flow cytometer gives signals particle by particle.

Usually EC50 stands for the concentration at which the effect is half-maximal.

B1: 5G03 (antibody, V domains shown)
VH: EVQLQQSGAELVRPGASVKLSCTASGFNIKDDFMHWVRQRPDQGLEYIGRFDPAIGNAKYAPKFQDKATLTADTSSNTAYLHLSSLTSEDTAVYYCAIFYAYWGQGTLVTVSA
VL: DVVMTQTPLSLPVSLGDQASISCRSSQSLVHSNRNTYLHWYLQKPGQSPKLLIYKVSNRFSGVPDRFSGSGSGTDFTLKISRVEAEDLGVYFCSQSTHVPFTFGSGTKLEIK
notes: Murine anti-human CD53 mAb purified from subcloned hybridoma; detected with anti-mouse IgG
On to B1, for which the midpoint of the response, the EC50, lay at 9.1 nM.

B2: 4J16 (antibody, V domains shown)
VH: EVQLQQSGAELVRPGASVRLSCTASGFNIKDDFLHWVNQRPEQGLEWIGRIDPANGNTKYAPKFRDRATITADTSSNTAYLQLSSLTSEDTAVYYCVRVYGDYWGQGTTLTVSS
VL: DIVMTQAAFSNPVTLGTSASISCRSSKSLLHSNGITYLYWYLQKPGQSPQLLIYQMSNLASGVPDRFSSSGSGTDFTLRISRVEAEDVGVYYCAQNLELPLTFGAGTKLELK
notes: as for B1
The molecule B2 displayed an EC50 of 1.6 nM.

B3: 4G15 (antibody, V domains shown)
VH: EVQLQQSGAELVRPGASVKLSCTTSGFNIKDDFMHWVKQRPEQGLEWIGWIDPENGNTQYASKFQGKATITADTSSNTAYLQLSSLTSEDTAVYYCTSYYEETMDYWGQGTSVTVSS
VL: DIVMTQAAFSNPVTLGTSASISCSSSKSLLHSNGITYLYWYLQRPGQSPQLLIYRMSNLASGVPDRFSGSGSGTDFTLRISRVEAEDVGVYYCAQMLERPRTFGGGTKLEIK
notes: as for B1
As for B3, it took 3.8 nM to reach a half-maximal effect (EC50).

B4: 4K13 (antibody, V domains shown)
VH: EVQLQQSVAELVRPGASVKLSCTASGLNIKNTYMNWVKQRPEQGLEWIGRIDPANGYTKYAPKFQGKTTITAATSSNTAFLQLSSLTSGDTAIYYCTTAVVATGDYWGQGTTLTVSS
VL: DIVMTQAAFSNPVTLGTSASISCRSSKSLLHSDGITYLYWFLQRPGQSPQLLIYRMSNLASGVPDRFSGSGSGTDFTLRISRVEAEDVGVYYCAQMLEFPFTFGTGTKLEIK
notes: as for B1
With B4, the concentration giving a half-maximal response (EC50) is ~1 nM.

B5: 2M05 (antibody, V domains shown)
VH: EVQLQQSVAELVRPGASVKLSCTTSGFNIKDTYMHWVKQRPEQGLEWIGRIDPANGHTKYAPKFQDKATIAADTSSNTAYLQLSSLTSEDTAIYYCACGWDAAFAFWGQGTLVTVSA
VL: DIVMTQAAPSVPVTPGESVSISCRSGKSLLHSNGDTYLYWFLQRPGQSPQLLIYRMSNLASGVPDRFSGSGSGTAFTLRISRVEAEDVGIYYCLQHLEFPLTFGAGTKLELK
notes: as for B1
B5 returned an EC50 of 4.6 nM.

B6: 5K16 (antibody, V domains shown)
VH: EVQLQQSVAELVRPGASVKLSCTASGFNIKNTYMYWVKQRPEQGLEWIGRIDPANGHTKCAPKFQGKATITADTSSNTAYLQLSSLTSEDSAIFYCARGEDYAMDYWGQGTSVTVSS
VL: DIVMTQSAPSVPVTPGESVSISCRSSKSLLHSNGDTYLYWFLQRPGQSPQVLIYRMSNLASGVPDRFSGSGSGTAFTLRISRVEAEDVGVYYCMQLLEYPFTFGSGTKLEIK
notes: as for B1
In turn, B6 returned an EC50 of 5.6 nM.

B7: 4C22 (antibody, V domains shown)
VH: EVQLQQSGAELVRPGASVKLSCTASGFNIKDDFMNWVKQRPEQGLEWIGRIDPANGHTKYAPKFQDKATITADTSSNTAFLHLSSLTSEDTAVYFCARWIPPYWGQGTLVTVSA
VL: DIVMTQAAPSVPVTPGESASISCRSSKSLLHSNGDTYLYWFLQRPGQSPQLLIYRMSNLASGVPDRFSGSGSGTAFTLRISRVEAEDVGVYYCMQLLEYPYTFGGGTKLEIK
notes: as for B1
As to B7, the EC50 is ~7 nM.

B8: 3G02 (antibody, V domains shown)
VH: EVQLQQSVAELVRPGASVKLSCTASGFNIKNTYMHWVKQRPEQGLEWIGRIDPAIGYTEYAPKFQGKATITADTSSNTAWLQLSSLTSEDTAIYYCAGGGPYYAMDYWGRGTSVTVSS
VL: DIVMTQAAPSIPVTPGESVSISCRSSKSLLHSNGDTYLYWFLQRPGQSPQVLIYRMSNLASGVPARFSGSGSGTAFTLRISRVEAEDVGVYYCMQHLEYPFTFGAGTKLELK
notes: as for B1
Consider B8, for which the EC50 was ~7 nM.

B9: 4L19 (antibody, V domains shown)
VH: QVQLQQSGAELMKPGASVKLSCKATGYTFTGYWIEWVKQRPGHGLEWIGEISSGGYNTNYNKKFKGKATFTVDTSSNTAYMQLSSLTTEDSAIYYCTRDSNDYYFDYWGQGTTLTVSS
VL: DVVMTQTPLTLSVTIGQPASISCKSSQSLLHRNGKTHLNWLLQRPGQSPKLLIYLVSKLESGVPDRFSGSGSGTDFTLRISRVEAEDLGVYYCLQVTHFPYTFGSGTKLEIK
notes: as for B1
As for B9, the EC50 was found to be 4.3 nM.

Source of the values: patent US20220251233A1 (VERSEAU THERAPEUTICS, published 2022).
